Legend:
Assay in all cases: UV peptide exchange; HLA class I ELISA
HLA-B*27:05 = molecular target: T1, HLA-B*27:05 (human, biotinylated heavy chain)
T1 construct: Conditional HLA class I complex as for m1
Method: (§1) The HLA class I ELISA is an enzyme immunoassay based on the detection of beta2-microglobulin (B2M) of (peptide-stabilized) HLA class I complexes. To this end streptavidin was bound onto polystyrene microtiter wells. […] Subsequently, horseradish peroxidase (HRP)-conjugated antibody to human B2M was added. […] In the latter case B2M was removed during the washing step. After removal of non-bound HRP conjugate by washing, a substrate solution was added to the wells. A coloured product formed in proportion to the amount of intact HLA complex present in the samples. After the reaction was terminated by the addition of a stop solution, absorbance was measured in a microtiter plate reader.

HLA-A*24:02 [1] = molecular target: T2, HLA-A*24:02 (human, biotinylated heavy chain)
T2 construct: Conditional HLA class I complex as for m1
Method: (§2) The UV control represented UV-irradiation of conditional HLA class I complex in the absence of a rescue peptide.
as §1

HLA-B*08:01 [2] = molecular target: T3, HLA-B*08:01 (human, biotinylated heavy chain)
T3 construct: Conditional HLA class I complex as for m1
Method: as §2, §1

HLA-B*07:02 [3] = molecular target: T4, HLA-B*07:02 (human, biotinylated heavy chain)
T4 construct: Conditional HLA class I complex as for m1
Method: as §2, §1

HLA-A*01:01 [4] = molecular target: T5, HLA-A*01:01 (human, biotinylated heavy chain)
T5 construct: Conditional HLA class I complex (heavy chain + B2M) first held by a UV-labile peptide; the tested peptide is exchanged in after UV cleavage
Method: as §2, §1

HLA-A*02:01 [5] = molecular target: T6, HLA-A*02:01 (human, biotinylated heavy chain)
T6 construct: Conditional HLA class I complex as for m1
Method: as §2, §1

HLA-A*01:01 [6] = molecular target: T5, HLA-A*01:01; remark: listed apart in the source
Method: as §1
(§3) Higher percentages correspond to stronger binding to the HLA allele.
HLA-A*03:01 = molecular target: T7, HLA-A*03:01 (human, biotinylated heavy chain)
T7 construct: Conditional HLA class I complex as for m1
Method: as §1, §3

HLA-B*08:01 [7] = molecular target: T3, HLA-B*08:01; remark: listed apart in the source
Method: as §1, §3
HLA-A*02:01 [8] = molecular target: T6, HLA-A*02:01; remark: listed apart in the source
Method: as §1, §3
HLA-B*07:02 [9] = molecular target: T4, HLA-B*07:02; remark: listed apart in the source
Method: as §1, §3
HLA-A*24:02 [10] = molecular target: T2, HLA-A*24:02; remark: listed apart in the source
Method: as §1, §3

| Binder | Average % (HLA-B*27:05) | Exch I (%) (HLA-B*27:05) | Exch II (%) (HLA-B*27:05) | Average % (HLA-A*24:02 [1]) | Exch I (%) (HLA-A*24:02 [1]) | Exch II (%) (HLA-A*24:02 [1]) | Average % (HLA-B*08:01 [2]) | Exch I (%) (HLA-B*08:01 [2]) | Exch II (%) (HLA-B*08:01 [2]) | Average % (HLA-B*07:02 [3]) | Exch I (%) (HLA-B*07:02 [3]) | Exch II (%) (HLA-B*07:02 [3]) | Average % (HLA-A*01:01 [4]) | Exch I (%) (HLA-A*01:01 [4]) | Exch II (%) (HLA-A*01:01 [4]) | Average % (HLA-A*02:01 [5]) | Exch I (%) (HLA-A*02:01 [5]) | Exch II (%) (HLA-A*02:01 [5]) | exchange rate with Pos (HLA-A*01:01 [6]) | exchange rate with Pos (HLA-A*03:01) | other results |
| --- | --- | --- | --- | --- | --- | --- | --- | --- | --- | --- | --- | --- | --- | --- | --- | --- | --- | --- | --- | --- | --- |
| KQLIAMDSA [Peptide 9, 9-mer KQLIAMDSA derived from P22 (SEQ ID NO: 1003)] | 10.8% | 11.8% | 9.8% | 5% | 4.6% | 5.3% | 7.7% | 7.1% | 8.3% | 10.3% | 10.5% | 10.1% | 6.3% | 6.3% | 6.3% | 7.2% | 6.9% | 7.6% |  |  |  |
| HREKQLIAM [Peptide 7, 9-mer HREKQLIAM derived from P22 (SEQ ID NO: 1003)] | 30.9% | 32.3% | 29.5% | 5.5% | 5.4% | 5.6% | 9.5% | 9.5% | 9.5% | 12.6% | 12.6% | 12.6% | 5.4% | 5.5% | 5.2% | 8.2% | 7.9% | 8.6% |  |  |  |
| LIAMDSAIT [Peptide 10, 9-mer LIAMDSAIT derived from P22 (SEQ ID NO: 1003)] | 7.3% | 8.5% | 6.1% | 4.8% | 4.6% | 5.1% | 7.3% | 6.9% | 7.7% | 9.5% | 9.8% | 9.2% | 5.8% | 6.2% | 5.4% | 6.9% | 6.7% | 7.1% |  |  |  |
| IQYSCMGLM (Synthetic 9-mer) [P50 9-mer IQYSCMGLM (AR W742C)] |  |  |  |  |  |  |  |  |  |  |  |  |  |  |  |  |  |  | 2.3% | 5.5% | exchange rate with Pos (HLA-B*08:01 [7]): 4.7%; exchange rate with Pos (HLA-A*02:01 [8]): 8.8%; exchange rate with Pos (HLA-B*07:02 [9]): 10.4%; exchange rate with Pos (HLA-A*24:02 [10]): 0.1% |
| YHREKQLIA [Peptide 6, 9-mer YHREKQLIA derived from P22 (SEQ ID NO: 1003)] | 13.1% | 14.4% | 11.7% | 6.5% | 6.6% | 6.3% | 8.3% | 8.3% | 8.4% | 10.8% | 11.1% | 10.5% | 5.8% | 6.2% | 5.5% | 17.2% | 16.3% | 18.1% |  |  |  |
| STRRAVRRM (Synthetic 9-mer) [P16 9-mer STRRAVRRM (MSMB-NCOA4 fusion)] |  |  |  |  |  |  |  |  |  |  |  |  |  |  |  |  |  |  | 5.5% | 6.1% | exchange rate with Pos (HLA-B*08:01 [7]): 6.2%; exchange rate with Pos (HLA-A*02:01 [8]): 10.4%; exchange rate with Pos (HLA-B*07:02 [9]): 13.7%; exchange rate with Pos (HLA-A*24:02 [10]): 0.8% |
| NSKMALNSL (Synthetic 9-mer) [P35 9-mer NSKMALNSL (TMPRSS2-ERG fusion)] |  |  |  |  |  |  |  |  |  |  |  |  |  |  |  |  |  |  | 2.5% | 4.2% | exchange rate with Pos (HLA-B*08:01 [7]): 13.7%; exchange rate with Pos (HLA-A*02:01 [8]): 12.5%; exchange rate with Pos (HLA-B*07:02 [9]): 12.1%; exchange rate with Pos (HLA-A*24:02 [10]): 0.2% |
| GVLRRLLCR (Synthetic 9-mer) [P37 9-mer GVLRRLLCR (TSTD1-F11R fusion)] |  |  |  |  |  |  |  |  |  |  |  |  |  |  |  |  |  |  | 1.4% | 6.4% | exchange rate with Pos (HLA-B*08:01 [7]): 3.3%; exchange rate with Pos (HLA-A*02:01 [8]): 12.5%; exchange rate with Pos (HLA-A*24:02 [10]): -0.1% |
| FPVGAEGTF (Synthetic 9-mer) [P27 9-mer FPVGAEGTF (FAM126B-ORC2 fusion)] |  |  |  |  |  |  |  |  |  |  |  |  |  |  |  |  |  |  | 4.8% | 4.5% | exchange rate with Pos (HLA-B*08:01 [7]): 6.4%; exchange rate with Pos (HLA-A*02:01 [8]): 10%; exchange rate with Pos (HLA-B*07:02 [9]): 7.8%; exchange rate with Pos (HLA-A*24:02 [10]): 0.7% |
| SLYHREKQL [Peptide 4, 9-mer SLYHREKQL derived from P22 (SEQ ID NO: 1003)] | 16.5% | 19% | 14% | 6.6% | 6.5% | 6.6% | 20.7% | 20.3% | 21.1% | 10.8% | 10.9% | 10.8% | 6.6% | 6.7% | 6.4% | 87% | 82.8% | 91.2% |  |  |  |
| SLIAMDSAI [Peptide 3, 9-mer SLIAMDSAI derived from FUS1 (SEQ ID NO: 1001)] | 6.3% | 7.1% | 5.5% | 5.5% | 5.3% | 5.7% | 7.3% | 7.5% | 7.1% | 11.1% | 10.9% | 11.3% | 6.9% | 6.9% | 6.9% | 58.5% | 57.3% | 59.7% |  |  |  |
| NMVENGCYL (Synthetic 9-mer) [P59 9-mer NMVENGCYL (FOXA1 F254V)] |  |  |  |  |  |  |  |  |  |  |  |  |  |  |  |  |  |  | 2.2% | 4.5% | exchange rate with Pos (HLA-B*08:01 [7]): 5.5%; exchange rate with Pos (HLA-A*02:01 [8]): 11.9%; exchange rate with Pos (HLA-B*07:02 [9]): 7.5%; exchange rate with Pos (HLA-A*24:02 [10]): -0.5% |
| AMDSAITLW [Peptide 1, 9-mer AMDSAITLW derived from FUS1 (SEQ ID NO: 1001)] | 9.8% | 10.3% | 9.3% | 5.5% | 5.1% | 6% | 7% | 6.6% | 7.3% | 9.7% | 10% | 9.4% | 4.6% | 4.7% | 4.6% | 8.6% | 8% | 9.2% |  |  |  |
| FFKRAAEGF (Synthetic 9-mer) [P77 9-mer FFKRAAEGF (AR-V3)] |  |  |  |  |  |  |  |  |  |  |  |  |  |  |  |  |  |  | 1.9% | 2.8% | exchange rate with Pos (HLA-B*08:01 [7]): 3.4%; exchange rate with Pos (HLA-B*07:02 [9]): 14.2%; exchange rate with Pos (HLA-A*24:02 [10]): 1.7% |
| LYHREKQLI [Peptide 5, 9-mer LYHREKQLI derived from P22 (SEQ ID NO: 1003)] | 17.4% | 19.3% | 15.4% | 17.8% | 17.5% | 18.1% | 7.7% | 7.5% | 7.9% | 10.8% | 11.5% | 10% | 6% | 6.2% | 5.8% | 11.8% | 11.3% | 12.3% |  |  |  |
| IAMDSAITL [Peptide 2, 9-mer IAMDSAITL derived from FUS1 (SEQ ID NO: 1001)] | 9.3% | 10.1% | 8.5% | 7% | 6.7% | 7.3% | 7.9% | 7.6% | 8.1% | 67.1% | 68.7% | 65.4% | 6.9% | 6.7% | 7% | 85.8% | 81.1% | 90.5% |  |  |  |
